In patent US20110135636A1 (SYMPHOGEN A S, published 2011):

Key:
[1] = molecular target: T1, Cynomolgus EGFR extracellular domain (Cynomolgus monkey (Macaca fascicularis), UniProt P55245 25-645 (rhesus entry)); test: ELISA on coated Cynomolgus rEGFR ECD
T1 construct: Cloned without signal peptide; also called Cynomolgus rEGFR ECD; Cynomolgus EGFR ECD
Method: To verify that tested Anti-EGFR antibodies bound equally well to both Human and Cynomolgus EGFR ECD and accordingly warranting toxicology studies in Cynomolgus monkeys, serial four fold dilutions of antibodies beginning from 1 μg/ml were tested by ELISA for binding to recombinant Human and Cynomolgus EGFR ECD proteins. […] ELISA wells were coated with 50 μl/well of full length EGFR at a concentration of 1 μg/ml in PBS overnight at 4° C. The next morning wells were washed twice with PBS-T and blocked for one hour with 100 μl PBS-T-1% BSA at room temperature, followed by wash twice in PBS-T. Next 50 μl of serially diluted Anti-EGFR antibodies and control antibodies were added to wells and incubated for one hour at room temperature. After antibody incubation wells were washed five times with PBS-T, followed by incubation with 50 μl/well Streptavidin-HRP secondary reagent diluted 1:3000 in blocking buffer and incubation at room temperature for 30 min. Finally wells were washed five times with PBS-T and plates were developed by adding 50 μL/well TMB substrate and incubated at room temperature. After incubation the reaction was stopped by addition of 1 M H₂SO₄; 100 μl/well and plates were read at OD 450 nm.

[2] = molecular target: T2, recombinant human EGFR extracellular domain with 6xHis (human, UniProt P00533 25-645); test: SPR (BIAcore 2000); IgG captured on anti-human Fc, soluble EGFR ECD injected; Scatchard analysis
T2 construct: In-house produced; also called 6xHis EGFR ECD; soluble human EGFR ECD; not shown: 6xHis tag
Method: Kinetic analysis of the full length IgG antibodies of the invention was performed on a BIAcore 2000, employing an assay as described in (Canziani, Klakamp, et al. 2004, Anal. Biochem, 325:301-307) allowing measurement of monovalent affinities of whole IgG molecules against soluble antigen. […] The chip surface was regenerated in between cycles by stripping the captured antibody/antigen complexes with a 10 second injection of 100 mM H₃PO₄. […] The association rate constant (ka) and dissociation constant (kd) were evaluated globally from the generated sensograms with the BIA evaluation software 4.1 provided by the manufacturer.

[3] = molecular target: T3, full length human EGFR expressed on the cell surface (human, UniProt P00533 25-1210); test: cell ELISA, IgG titrated on unfixed A431-NS cells after saturation with Fab 1024 and Fab 1030; given as ED50
T3 construct: whole, on cells; also called EGFR on A431-NS cells; EGFR on HN5 cells
Method: (§1) Cell ELISA: The ELISA was performed essentially as described in example 15 with modifications. Cells were left unfixed to allow conformational EGFR flexibility after antibody additions. Briefly, 10,000 A431-NS cells were grown in 96 well ELISA plates containing DMEM with added 0.5% FCS and 1% P/S at 37° C., 5% CO₂ overnight. […] 25 μl DMEM containing 1% BSA was added to wells used for testing of IgG antibodies without added Fab fragments. […] Next, wells were washed four times with PBS and 50 μl of a secondary monoclonal Mouse-anti-Human (Fc specific) HRP conjugate diluted 1:5000 in DMEM containing 1% BSA was added and incubated on ice for 30 min. Finally wells were washed four times with PBS and plates developed by adding 50 μl/well TMB substrate and read at 620 nm every 5-15-30 min. After incubation with substrate the reaction was stopped by addition of 1 M H₂SO₄ and absorbance read at 450 nm. The functional affinity expressed as ED50 values were calculated by subtraction of the average background binding with secondary reagent only, followed by normalization of the binding curves by plotting % maximal binding relative to each antibody tested.
(§2) Investigations of antibody induced binding enhancements were determined by concurrent ELISA binding studies, employing same secondary antibody reagent and incubation times.

[4] = molecular target: T3, full length human EGFR expressed on the …; test: cell ELISA, IgG titrated on unfixed A431-NS cells after saturation with Fab 1030; given as ED50
Method: as §1, §2

[5] = molecular target: T3, full length human EGFR expressed on the …; test: cell ELISA, IgG titrated on unfixed A431-NS cells after saturation with Fab 1024; given as ED50
Method: as §1, §2

[6] = molecular target: T3, full length human EGFR expressed on the …; test: cell ELISA, IgG titrated on unfixed A431-NS cells after saturation with Fab 992 and Fab 1024; given as ED50
Method: as §1, §2

[7] = molecular target: T3, full length human EGFR expressed on the …; test: cell ELISA, IgG titrated on unfixed A431-NS cells after saturation with Fab 992 and Fab 1030; given as ED50
Method: as §1, §2

B1: antibody 1208 (antibody, human IgG1, kappa, V domains shown)
VH: EVQLVESGGGLVKPGGSLKLSCAASGFAFSSYDMSWVRQTPEKRLEWVAYIGSGDDNTHYPDSVKGRFTISRHNAKNTLYLQMSSLKSEDTAMYYCARQKYGNYGDTMDYWGQGTSVTVSS
VL: DVVMTQTPLSLPVSLGDQASISCRSSQSLVHSNGNTYLHWYLQKPGQSPKLLIYKVSNRFSGVPDRFSGSGSGTDFTLKISRVEAEDLGVYFCSQSTHVPTFGGGTKLEIKR
notes: Chimeric IgG1 kappa; also called clone 1208
B1: binds [1].

B2: antibody 992 (antibody, human IgG1, kappa, V domains shown)
VH: EVQLQQPGSELVRPGASVKLSCKASGYTFTSYWMHWVKQRPGQGLEWIGNIYPGSRSTNYDEKFKSKATLTVDTSSSTAYMQLSSLTSEDSAVYYCTRNGDYYVSSGDAMDYWGQGTSVTVSS
VL: DIQMTQTTSSLSASLGDRVTISCRTSQDIGNYLNWYQQKPDGTVKLLIYYTSRLHSGVPSRFSGSGSGTDFSLTINNVEQEDVATYFCQHYNTVPPTFGGGTKLEIKR
notes: Chimeric mouse/human IgG1 kappa; the VL entry includes the human kappa constant region
B2 showed a Kd [2] of 170000 pM, an EC50 [3] of 500 pM and an EC50 [4] of 400 pM. It also gave an EC50 [5] of 500 pM.

B3: antibody 1030 (antibody, human IgG1, kappa, V domains shown)
VH: EVQLVESGGGLVKPGGSLKLSCAASGFTFSSYALSWVRQTPERRLEWVASISGVGSTYFPDSVKGRFTMSRDNARNILYLQMSSLRSEDTAMYYCARGSDGYFYAMDYWGQGTSVTVSS
VL: DIVLTQSPASLAVSLGQRATISCRASKSVSTSGYSFMHWYQLKPGQPPKLLIYLASNLESGVPARFSGSGSGTDFTLNIHPVEEEDAATYYCQHSREFPLTFGGGTKLEIKR
notes: Chimeric IgG1 kappa
Work on B3 yielded an EC50 [6] of 2200 pM.

B4: antibody 1024 (antibody, human IgG1, kappa, V domains shown)
VH: QVQLQQPGAELVEPGGSVKLSCKASGYTFTSHWMHWVKQRPGQGLEWIGEINPSSGRNNYNEKFKSKATLTVDKSSSTAYMQFSSLTSEDSAVYYCVRYYGYDEAMDYWGQGTSVTVSS
VL: DIVMTQAAFSNPVTLGTSASISCRSSKSLLHSNGITYLYWYLQKPGQSPQLLIYQMSNLASGVPDRFSSSGSGTDFTLRISRVEAEDVGVYYCAQNLELPYTFGGGTKLEIKR
notes: Chimeric IgG1 kappa
With B4 the EC50 [7] was 800 pM.
